Positions count from the first letter of the chain named.
T1: human ALK epitope peptide (amino acids 391-406 of the ALK protein) (human)
T1 construct: In the yeast two-hybrid screen it was a C-terminal fusion to LexA; also called Alk LBD peptide; Alk LBD
T1 peptide: GRIGRPDNPFRVALEY

B1: 2.11 (scFv)
scFv (VL-linker-VH): QSVLTQPPSVSAAPGQKVTISCSGSTSNIGDNYVSWYQQLPGTAPQLLIYDNTKRPSGIPDRFSGSKSGTSATLGITGLQTGDEADYYCATWDNDKWGVVFGGGTKLEVLGGGGGSGGGGSGGGGSSGGGSEVQLVESGGGLVQPGGSLRLSCAASGFTFSSYAMSWVRQAPGKGLEWVSAIRTDSKEQYYADSVKGRFTISRDNSKNTLYLQMNSLRAEDTAVYYCARDAWLDVLSDGFDYWGQGTLVTVSS
notes: One of the seven improved scFvs (group m4); The full chain is assembled from ESBA521 with its VH CDR2 exchanged; also called scFv 2.11
B2: 4.12 (scFv)
scFv (VL-linker-VH): B1 scFv (VL-linker-VH) with R183N, D185R, S186G, K187Q, E188N, Q189E
notes: One of the seven improved scFvs (group m4); The full chain is assembled from ESBA521 with its VH CDR2 exchanged
B3: 33.11 (scFv)
scFv (VL-linker-VH): B1 scFv (VL-linker-VH) with R183N, D185G, S186G, K187G, E188S, Q189T
notes: One of the seven improved scFvs (group m4); The full chain is assembled from ESBA521 with its VH CDR2 exchanged; also called scFv 33.11
B4: 100.2 (scFv)
scFv (VL-linker-VH): B1 scFv (VL-linker-VH) with R183K, S186G, K187N, E188H, Q189K
notes: as for B2
B5: 265.1 (scFv)
scFv (VL-linker-VH): B1 scFv (VL-linker-VH) with R183N, T184M, D185K, S186G, K187N, E188D, Q189R
notes: as for B2
B6: 43.2 (scFv)
scFv (VL-linker-VH): QSVLTQPPSVSAAPGQKVTISCSGSTSNIGDNYVSWYQQLPGTAPQLLIYDNTKRPSGIPDRFSGSKSGTSATLGITGLQTGDEADYYCATWDNDKWGVVFGGGTKLEVLGGGGGSGGGGSGGGGSSGGGSEVQLVESGGGLVQPGGSLRLSCAASGFTFSSYAMSWVRQAPGKGLEWVSAIRTNSKEYYADSVKGRFTISRDNSKNTLYLQMNSLRAEDTAVYYCARDAWLDVLSDGFDYWGQGTLVTVSS
notes: as for B2

Biological target: T1, human ALK epitope peptide (amino acids …)
Assay: ELISA; the coated antigen is not named on the sheet or in the legend, taken as the ALK epitope peptide

binding result | Binder
binds | B1
binds | B2
binds | B3
binds | B4
binds | B5
binds | B6
